This assay has as its target HLA-A*0201 (Homo sapiens, UniProt P04439, D140Y/D185E/D98H/E176V/E277Q/G131W/G231S/I119V/I121R/I166T/I218V/L300P/L318F/N151K/N90K/P208A/P217A/Q86G/Q94H/R138H/R169H/T345S). Briefly: NY-ESO-1 analogues, % peptide binding (Table 1).

For “NY-ESO-1 157-165 (S157Y, C165V) (YLLMWITQV; Peptide analogue) [SEQ ID NO:13]”, the “% Peptide Binding” value is 80%.

Take “NY-ESO-1 157-165 (S157Y, L158(Nva), C165V) [SEQ ID NO:19]”: the “% Peptide Binding” value stood at 80%.

For the origin of these results see patent publication US20130058965A1, “INJECTABLE FORMULATIONS FOR PARENTERAL ADMINISTRATION” (MANNKIND CORPORATION, priority 2009, published 2013).
